Results as given in publication PMC3976300.

Columns and labels:
Experiment in all cases: intrinsic fluorescence quenching
[1] = system: Alr0088 (Anabaena sp. PCC7120); details: Fluorescence: 20 mM Tris-HCl pH 8, 1 mM EDTA, 20 or 100 mM NaCl, room temperature, EMSA: 20 mM Tris-HCl pH 8, 1 mM MgCl2, 100 mM KCl, 8 mM DTT, 4% sucrose …
[2] = system: All4779 (Anabaena sp. PCC7120); details: Fluorescence: 20 mM Tris-HCl pH 8, 1 mM EDTA, 20 or 100 mM NaCl, room temperature, EMSA: 20 mM Tris-HCl pH 8, 1 mM MgCl2, 100 mM KCl, 8 mM DTT, 4% sucrose …
[3] = system: EcoSSB (Escherichia coli); details: 20 mM NaCl; Fluorescence: 20 mM Tris-HCl pH 8, 1 mM EDTA, 20 or 100 mM NaCl, room temperature; EMSA: 20 mM Tris-HCl pH 8, 1 mM MgCl2, 100 mM KCl, 8 mM DTT, 4% sucrose …
[4] = 20 mM NaCl, reciprocal of poly(dT) concentration at 50% fluorescence

## M13 ssDNA
[1]; high NaCl
  binding signal: 40 % quenching
[2]; high NaCl
  binding signal: 18 % quenching

## poly(dT)
[1]; [4]
  Ka: 2.56e+06 M⁻¹
[3]
  Ka: 6.76e+07 M⁻¹
[2]; [4]
  Ka: 5.13e+07 M⁻¹
